Assay results taken from publication PMC10484678.

Target: PCBP2 KH1/2 (human, UniProt Q15366 1-168)
Assay: ITC

Sequence of PCBP2 KH1/2 (Q15366 1-168): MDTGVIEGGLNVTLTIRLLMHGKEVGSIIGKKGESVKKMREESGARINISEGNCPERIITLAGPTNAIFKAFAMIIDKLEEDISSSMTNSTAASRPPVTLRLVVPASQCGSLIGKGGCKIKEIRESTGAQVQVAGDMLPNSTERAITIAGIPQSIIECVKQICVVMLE

Binder: GCUCUGGGGUUGUACCCACCCCAGAGC (structured_RNA) [PV stem-loop B]
- Kd: 22.9 ± 6.3 µM
